This test concerns the target T1, Epithelial Cell Adhesion Molecule (EpCAM) (human, UniProt P16422 24-314).
T1 construct: whole, on cells; Target is endogenous EpCAM in patient tumor tissue: in vivo targeting for m1, FFPE sections for the IHC antibodies
T1 sequence (looked up): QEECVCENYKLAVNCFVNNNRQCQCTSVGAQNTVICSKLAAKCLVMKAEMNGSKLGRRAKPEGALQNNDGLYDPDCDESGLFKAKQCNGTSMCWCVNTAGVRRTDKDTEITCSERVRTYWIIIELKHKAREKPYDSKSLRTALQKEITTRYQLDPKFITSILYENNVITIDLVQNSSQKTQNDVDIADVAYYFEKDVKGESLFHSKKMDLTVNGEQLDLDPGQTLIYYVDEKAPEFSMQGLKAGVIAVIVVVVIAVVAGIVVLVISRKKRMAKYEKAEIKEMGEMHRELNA
In words: NIR fluorescence microscopy (Axio scan) of metastatic lymph node sections after IV dosing, overlaid with EpCAM IHC.

B1: VB5-845D-800CW (Fab, V domains shown)
VH: EVQLQQSGPGLVQPGGSVRISCAASGYTFTAYGMNWVRQAPGKGLEWMGWINTYTGESTYADSFKGRFEFSLDTHNSSAYLQIQSLREEDTAVYYCARFAIQGDYWGQGTLVTVSS
VL: DIQMTQSPSSLSASVGDRVTITCKSTKSLLHSNGITYLYWYQQKPGSAPKLLIYQMSHLASGVPSRFSSSGSGTDFTLTISSLQPEDFATYYCAQNLEIPRTFGQGTKVEIKR
modifications: IRDye 800CW conjugated by N-hydroxysuccinimide ester chemistry to primary amines (sites and chain not stated)
For the molecule B1, the binding result is recorded as “binds”.

For the origin of these results see patent publication US20250339564A1 (ACADEMISCH ZIEKENHUIS LEIDEN H O D N LUMC, published 2025).
